The values that follow come from patent US20220153854A1 (Ablynx, published 2022).

Assay [1] has as its target T1, membrane bound cyno OX40L on CHO-KI cells (cynomolgus monkey, UniProt G7NVH7 1-183).
T1 construct: whole, on cells; also called CHO-KI cells expressing cyno OX40L
T1 sequence: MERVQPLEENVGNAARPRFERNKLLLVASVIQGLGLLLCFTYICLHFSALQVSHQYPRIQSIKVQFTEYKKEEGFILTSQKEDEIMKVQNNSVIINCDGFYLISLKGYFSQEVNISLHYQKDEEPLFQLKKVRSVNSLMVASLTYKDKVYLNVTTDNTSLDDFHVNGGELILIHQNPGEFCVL
Nature of the assay: flow cytometry on fixed CHO-KI cells expressing cyno OX40L, 48 h incubation. The method, then: (§1) Briefly, cells were fixed with 4% paraformaldehyde and 0.1% Glutaraldehyde in PBS, seeded at a density of 1×10⁴ cells/well and incubated with a dilution series of ISVD F027100187 or reference compound anti-hOX40L mAb, named Comparator 3, starting from 100 nM […] 0.5 μM, for 48 hours at room temperature. Comparator 3 is a standard conventional monoclonal antibody directed against human OX40L, which is used as a reference throughout the Examples 1 to 12 described herein. Cells were washed 3 times and subsequently incubated with an anti-VHH mAb (ABH00119) for 30 min at 4° C., washed again, and incubated for 30 min at 4° C. with a goat anti-mouse PE or FITC labeled antibody. Samples were washed and resuspended in FACS Buffer (D-PBS with 10% FBS and 0.05% sodium azide supplemented with 5 nM TOPRO3). Cell suspensions were then analyzed on an iQuescreener. EC50 values were calculated using GraphPad Prism.
(Flow cytometry measures light scatter and fluorescence of single cells or particles in a stream.)

For assay [2], the target named is T2, membrane bound human OX40L on CHO-KI cells (human, UniProt P23510 1-183).
T2 construct: whole, on cells; also called CHO-KI cells expressing human OX40L
T2 sequence (looked up): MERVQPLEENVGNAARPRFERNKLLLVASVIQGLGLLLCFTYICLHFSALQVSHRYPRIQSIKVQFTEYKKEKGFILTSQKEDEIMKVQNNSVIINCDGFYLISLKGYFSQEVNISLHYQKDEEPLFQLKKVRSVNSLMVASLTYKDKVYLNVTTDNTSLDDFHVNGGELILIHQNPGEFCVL
Nature of the assay: flow cytometry on fixed CHO-KI cells expressing human OX40L, 48 h incubation. The method, then: as §1

In a further assay the target is T3, human IL-13 (human, UniProt P35225 35-146, limits assumed).
T3 construct: Recombinant soluble protein; also called hIL-13; soluble hIL-13
T3 sequence (P35225 35-146 limits assumed): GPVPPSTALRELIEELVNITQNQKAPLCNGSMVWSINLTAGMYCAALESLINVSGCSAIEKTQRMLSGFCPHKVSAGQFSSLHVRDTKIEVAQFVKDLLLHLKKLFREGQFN
Nature of the assay: flow cytometry on CHO-KI cells expressing human OX40L loaded with 100 nM F027100187, dilution series of soluble human IL-13 in the presence of 30 uM HSA (bridging / simultaneous binding; x axis printed as 'Concentration human IL-13-Fc (M)', text says biotinylated IL-13). The method, then:
Using flow cytometry, it was determined whether ISVD construct F0271000187 can bind simultaneously to recombinant soluble hIL-13 and cell membrane bound hOX40L. […] Subsequently the mixture was incubated with a dilution series of biotinylated IL-13 starting from 500 nM down to […], and incubated for 30 min at 4° C., in the presence of 30 μM HSA. Cells were washed 3 times and subsequently incubated with PE-labelled […] for 30 min at 4° C., washed again. Samples were washed and resuspended in FACS Buffer (D-PBS with 10% FBS and 0.05% sodium azide supplemented with 5 nM TOPRO3). Cell suspensions were then analyzed on a iQuescreener.

In the next assay the target is T4, human OX40L (human, UniProt P23510 51-183).
T4 construct: Protein in solution or immobilised (SPR, Gyrolab); construct not described; also called huOX40L; hOX40L
T4 sequence (looked up): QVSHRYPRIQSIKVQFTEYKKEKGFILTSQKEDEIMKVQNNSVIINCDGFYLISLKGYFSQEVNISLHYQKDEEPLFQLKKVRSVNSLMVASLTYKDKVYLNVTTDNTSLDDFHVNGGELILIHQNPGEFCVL
Briefly: Gyrolab in-solution affinity, 48 h incubation; 95% CI 98-120 pM. As for the experimental part: Under receptor-controlled measurements a serial dilution of OX40L (ranging from 1.3 μM-0.031 μM), IL-13 (ranging from 0.1 μM-0.25 fM), or serum albumin (ranging from 100 μM-3.2 μM) and a fixed amount of ISVD construct F027100187 (5 nM in case of OX40L, […] in case of IL-13 and 30 nM in case of HSA and cyno SA) were mixed to allow interaction and incubated for either 24 or 48 hours (in case of OX40L and IL-13) or 2 hours (in case of serum albumin) to reach equilibrium.
Biotinylated human OX40L/IL-13/serum albumin was captured in the microstructures of a Gyrolab Bioaffy 1000 CD, which contains columns of beads and was used as a molecular probe to capture free F027100187 from the equilibrated solution. The mixture of OX40L/IL13/serum albumin and F027100187 (containing free OX40UIL-13/serum albumin, free F027100187 and OX40L/IL13/serum albumin—F027100187 complexes) was allowed to flow through the beads, and a small percentage of free F027100187 was captured, which is proportional to the free ISVD construct concentration. A fluorescently labeled anti-ISVD antibody, ABH0086-Alexa647, was then injected to label any captured F027100187 and after rinsing away excess of fluorescent probe, the change in fluorescence was determined. Fitting of the dilution series was done using Gyrolab Analysis software, where KD- and receptor-controlled curves were analyzed to determine the KD value.

B1: ISVD construct F027100187 (other)
chain: DVQLVESGGGVVQPGGSLRLSCAASRSIGRYDRMGWYRHRPGEPRELVATITGGSSINYGDSVKGRFTISIDNSKNTVYLQMNSLRPEDTALYYCNFNKYQISRDTWGQGTLVTVSSGGGGSGGGSEVQLVESGGGVVQPGGSLRLSCAASGRTFSSYRMGWFRQAPGKEREFVAALSGDGYSTYTANSVKGRFTISRDNSKNTVYLQMNSLRPEDTALYYCAAKLQYVSGWSYDYPYWGQGTLVTVSSGGGGSGGGSEVQLVESGGGVVQPGGSLRLSCAASGFTFRSFGMSWVRQAPGKGPEWVSSISGSGSDTLYADSVKGRFTISRDNSKNTLYLQMNSLRPEDTALYYCTIGGSLSRSSQGTLVTVSSGGGGSGGGSEVQLVESGGGVVQPGGSLRLSCAASGFTFNNYAMKWVRQAPGKGLEWVSSITTGGGSTDYADSVKGRFTISRDNSKNTLYLQMNSLRPEDTALYYCANVPFGYYSEHFSGLSFDYRGQGTLVTVSSA
notes: Tetravalent, trispecific single-chain construct of four VHH (ISVD) domains: one against OX40L, two against IL-13, one against serum albumin; also called F0271000187; F27100187
Take B1: the EC50 (usually the concentration needed to bring the measured effect to its halfway point) in assay [1] worked out at 36.3 pM; in assay [2] it was 23.5 pM. In addition, the EC50 (read off the curve) (in general, the concentration giving half of the maximal effect) with human IL-13 was approximately 20000 pM. For the same molecule, in the assay with human OX40L, the Kd – broadly, the equilibrium constant for the complex coming apart – is 109 pM.
